Data reported in patent US20110118131A1 (published 2011).

Target: T1, IL-1β (UniProt P01584 117-269)
T1 construct: Antigen of XPA23
Test: Biacore, Fab periplasmic extract

Binder	fold difference in affinity against the original [fold]
XPA23 heavy chain S52G (Fab, V domains shown, Fab, periplasmic extract; also called C5A S52G) VH: EVQLLESGGGLVQPGGSLRLSCAASGFTFSKYFMFWVRQAPGKGLEWVSVIGPSGGMTRYADSVKGRFTISRDNSKNTLYLQMNSLRAEDTAVYYCARVGYGGNSDYWGQGTLVTVSS VL: DIQMTQSPSSVSASVGDRLTIICRASQDINRWLAWYQQTPGNAPKLLIHSATSLQSGVPSRFSGSGSGTDFTLTINSLQPEDFATYYCQQADSFPLTFGGGTKVEIK	0.03
XPA23 heavy chain T58G (Fab, V domains shown, Fab, periplasmic extract; also called C5A T58G) VH: EVQLLESGGGLVQPGGSLRLSCAASGFTFSKYFMFWVRQAPGKGLEWVSVISPSGGMGRYADSVKGRFTISRDNSKNTLYLQMNSLRAEDTAVYYCARVGYGGNSDYWGQGTLVTVSS VL: DIQMTQSPSSVSASVGDRLTIICRASQDINRWLAWYQQTPGNAPKLLIHSATSLQSGVPSRFSGSGSGTDFTLTINSLQPEDFATYYCQQADSFPLTFGGGTKVEIK	0.95
XPA23 heavy chain S105P (Fab, V domains shown, Fab, periplasmic extract; also called C5A S105P) VH: EVQLLESGGGLVQPGGSLRLSCAASGFTFSKYFMFWVRQAPGKGLEWVSVISPSGGMTRYADSVKGRFTISRDNSKNTLYLQMNSLRAEDTAVYYCARVGYGGNPDYWGQGTLVTVSS VL: DIQMTQSPSSVSASVGDRLTIICRASQDINRWLAWYQQTPGNAPKLLIHSATSLQSGVPSRFSGSGSGTDFTLTINSLQPEDFATYYCQQADSFPLTFGGGTKVEIK	1.41
XPA23 heavy chain S52V (Fab, V domains shown, Fab, periplasmic extract; also called C5A S52V) VH: EVQLLESGGGLVQPGGSLRLSCAASGFTFSKYFMFWVRQAPGKGLEWVSVIVPSGGMTRYADSVKGRFTISRDNSKNTLYLQMNSLRAEDTAVYYCARVGYGGNSDYWGQGTLVTVSS VL: DIQMTQSPSSVSASVGDRLTIICRASQDINRWLAWYQQTPGNAPKLLIHSATSLQSGVPSRFSGSGSGTDFTLTINSLQPEDFATYYCQQADSFPLTFGGGTKVEIK	0.04
XPA23 heavy chain T58I (Fab, V domains shown, Fab, periplasmic extract; also called C5A T58I) VH: EVQLLESGGGLVQPGGSLRLSCAASGFTFSKYFMFWVRQAPGKGLEWVSVISPSGGMIRYADSVKGRFTISRDNSKNTLYLQMNSLRAEDTAVYYCARVGYGGNSDYWGQGTLVTVSS VL: DIQMTQSPSSVSASVGDRLTIICRASQDINRWLAWYQQTPGNAPKLLIHSATSLQSGVPSRFSGSGSGTDFTLTINSLQPEDFATYYCQQADSFPLTFGGGTKVEIK	0.95
XPA23 heavy chain S54G (Fab, V domains shown, Fab, periplasmic extract; also called C5A S54G) VH: EVQLLESGGGLVQPGGSLRLSCAASGFTFSKYFMFWVRQAPGKGLEWVSVISPGGGMTRYADSVKGRFTISRDNSKNTLYLQMNSLRAEDTAVYYCARVGYGGNSDYWGQGTLVTVSS VL: DIQMTQSPSSVSASVGDRLTIICRASQDINRWLAWYQQTPGNAPKLLIHSATSLQSGVPSRFSGSGSGTDFTLTINSLQPEDFATYYCQQADSFPLTFGGGTKVEIK	1.43
XPA23 heavy chain S52T (Fab, V domains shown, Fab, periplasmic extract; also called C5A S52T) VH: EVQLLESGGGLVQPGGSLRLSCAASGFTFSKYFMFWVRQAPGKGLEWVSVITPSGGMTRYADSVKGRFTISRDNSKNTLYLQMNSLRAEDTAVYYCARVGYGGNSDYWGQGTLVTVSS VL: DIQMTQSPSSVSASVGDRLTIICRASQDINRWLAWYQQTPGNAPKLLIHSATSLQSGVPSRFSGSGSGTDFTLTINSLQPEDFATYYCQQADSFPLTFGGGTKVEIK	0.04
XPA23 heavy chain S54T (Fab, V domains shown, Fab, periplasmic extract; also called C5A S54T) VH: EVQLLESGGGLVQPGGSLRLSCAASGFTFSKYFMFWVRQAPGKGLEWVSVISPTGGMTRYADSVKGRFTISRDNSKNTLYLQMNSLRAEDTAVYYCARVGYGGNSDYWGQGTLVTVSS VL: DIQMTQSPSSVSASVGDRLTIICRASQDINRWLAWYQQTPGNAPKLLIHSATSLQSGVPSRFSGSGSGTDFTLTINSLQPEDFATYYCQQADSFPLTFGGGTKVEIK	0.14
XPA23 heavy chain T58A (Fab, V domains shown, Fab, periplasmic extract; also called C5A T58A) VH: EVQLLESGGGLVQPGGSLRLSCAASGFTFSKYFMFWVRQAPGKGLEWVSVISPSGGMARYADSVKGRFTISRDNSKNTLYLQMNSLRAEDTAVYYCARVGYGGNSDYWGQGTLVTVSS VL: DIQMTQSPSSVSASVGDRLTIICRASQDINRWLAWYQQTPGNAPKLLIHSATSLQSGVPSRFSGSGSGTDFTLTINSLQPEDFATYYCQQADSFPLTFGGGTKVEIK	0.14
XPA23 heavy chain S54V (Fab, V domains shown, Fab, periplasmic extract; also called C5A S54V) VH: EVQLLESGGGLVQPGGSLRLSCAASGFTFSKYFMFWVRQAPGKGLEWVSVISPVGGMTRYADSVKGRFTISRDNSKNTLYLQMNSLRAEDTAVYYCARVGYGGNSDYWGQGTLVTVSS VL: DIQMTQSPSSVSASVGDRLTIICRASQDINRWLAWYQQTPGNAPKLLIHSATSLQSGVPSRFSGSGSGTDFTLTINSLQPEDFATYYCQQADSFPLTFGGGTKVEIK	1
XPA23 heavy chain S54L (Fab, V domains shown, Fab, periplasmic extract; also called C5A S54L) VH: EVQLLESGGGLVQPGGSLRLSCAASGFTFSKYFMFWVRQAPGKGLEWVSVISPLGGMTRYADSVKGRFTISRDNSKNTLYLQMNSLRAEDTAVYYCARVGYGGNSDYWGQGTLVTVSS VL: DIQMTQSPSSVSASVGDRLTIICRASQDINRWLAWYQQTPGNAPKLLIHSATSLQSGVPSRFSGSGSGTDFTLTINSLQPEDFATYYCQQADSFPLTFGGGTKVEIK	0.91
XPA23 heavy chain S105A (Fab, V domains shown, Fab, periplasmic extract; also called C5A S105A) VH: EVQLLESGGGLVQPGGSLRLSCAASGFTFSKYFMFWVRQAPGKGLEWVSVISPSGGMTRYADSVKGRFTISRDNSKNTLYLQMNSLRAEDTAVYYCARVGYGGNADYWGQGTLVTVSS VL: DIQMTQSPSSVSASVGDRLTIICRASQDINRWLAWYQQTPGNAPKLLIHSATSLQSGVPSRFSGSGSGTDFTLTINSLQPEDFATYYCQQADSFPLTFGGGTKVEIK	0.84
XPA23 heavy chain S52P (Fab, V domains shown, Fab, periplasmic extract; also called C5A S52P) VH: EVQLLESGGGLVQPGGSLRLSCAASGFTFSKYFMFWVRQAPGKGLEWVSVIPPSGGMTRYADSVKGRFTISRDNSKNTLYLQMNSLRAEDTAVYYCARVGYGGNSDYWGQGTLVTVSS VL: DIQMTQSPSSVSASVGDRLTIICRASQDINRWLAWYQQTPGNAPKLLIHSATSLQSGVPSRFSGSGSGTDFTLTINSLQPEDFATYYCQQADSFPLTFGGGTKVEIK	0.05
XPA23 heavy chain S54P (Fab, V domains shown, Fab, periplasmic extract; also called C5A S54P) VH: EVQLLESGGGLVQPGGSLRLSCAASGFTFSKYFMFWVRQAPGKGLEWVSVISPPGGMTRYADSVKGRFTISRDNSKNTLYLQMNSLRAEDTAVYYCARVGYGGNSDYWGQGTLVTVSS VL: DIQMTQSPSSVSASVGDRLTIICRASQDINRWLAWYQQTPGNAPKLLIHSATSLQSGVPSRFSGSGSGTDFTLTINSLQPEDFATYYCQQADSFPLTFGGGTKVEIK	0.06
XPA23 heavy chain S54I (Fab, V domains shown, Fab, periplasmic extract; also called C5A S54I) VH: EVQLLESGGGLVQPGGSLRLSCAASGFTFSKYFMFWVRQAPGKGLEWVSVISPIGGMTRYADSVKGRFTISRDNSKNTLYLQMNSLRAEDTAVYYCARVGYGGNSDYWGQGTLVTVSS VL: DIQMTQSPSSVSASVGDRLTIICRASQDINRWLAWYQQTPGNAPKLLIHSATSLQSGVPSRFSGSGSGTDFTLTINSLQPEDFATYYCQQADSFPLTFGGGTKVEIK	0.86
XPA23 heavy chain S105T (Fab, V domains shown, Fab, periplasmic extract; also called C5A S105T) VH: EVQLLESGGGLVQPGGSLRLSCAASGFTFSKYFMFWVRQAPGKGLEWVSVISPSGGMTRYADSVKGRFTISRDNSKNTLYLQMNSLRAEDTAVYYCARVGYGGNTDYWGQGTLVTVSS VL: DIQMTQSPSSVSASVGDRLTIICRASQDINRWLAWYQQTPGNAPKLLIHSATSLQSGVPSRFSGSGSGTDFTLTINSLQPEDFATYYCQQADSFPLTFGGGTKVEIK	0.11
XPA23 heavy chain S54A (Fab, V domains shown, Fab, periplasmic extract; also called C5A S54A) VH: EVQLLESGGGLVQPGGSLRLSCAASGFTFSKYFMFWVRQAPGKGLEWVSVISPAGGMTRYADSVKGRFTISRDNSKNTLYLQMNSLRAEDTAVYYCARVGYGGNSDYWGQGTLVTVSS VL: DIQMTQSPSSVSASVGDRLTIICRASQDINRWLAWYQQTPGNAPKLLIHSATSLQSGVPSRFSGSGSGTDFTLTINSLQPEDFATYYCQQADSFPLTFGGGTKVEIK	1
XPA23 heavy chain T58L (Fab, V domains shown, Fab, periplasmic extract; also called C5A T58L) VH: EVQLLESGGGLVQPGGSLRLSCAASGFTFSKYFMFWVRQAPGKGLEWVSVISPSGGMLRYADSVKGRFTISRDNSKNTLYLQMNSLRAEDTAVYYCARVGYGGNSDYWGQGTLVTVSS VL: DIQMTQSPSSVSASVGDRLTIICRASQDINRWLAWYQQTPGNAPKLLIHSATSLQSGVPSRFSGSGSGTDFTLTINSLQPEDFATYYCQQADSFPLTFGGGTKVEIK	0.95
XPA23 heavy chain S105G (Fab, V domains shown, Fab, periplasmic extract; also called C5A S105G) VH: EVQLLESGGGLVQPGGSLRLSCAASGFTFSKYFMFWVRQAPGKGLEWVSVISPSGGMTRYADSVKGRFTISRDNSKNTLYLQMNSLRAEDTAVYYCARVGYGGNGDYWGQGTLVTVSS VL: DIQMTQSPSSVSASVGDRLTIICRASQDINRWLAWYQQTPGNAPKLLIHSATSLQSGVPSRFSGSGSGTDFTLTINSLQPEDFATYYCQQADSFPLTFGGGTKVEIK	0.12
XPA23 heavy chain S105V (Fab, V domains shown, Fab, periplasmic extract; also called C5A S105V) VH: EVQLLESGGGLVQPGGSLRLSCAASGFTFSKYFMFWVRQAPGKGLEWVSVISPSGGMTRYADSVKGRFTISRDNSKNTLYLQMNSLRAEDTAVYYCARVGYGGNVDYWGQGTLVTVSS VL: DIQMTQSPSSVSASVGDRLTIICRASQDINRWLAWYQQTPGNAPKLLIHSATSLQSGVPSRFSGSGSGTDFTLTINSLQPEDFATYYCQQADSFPLTFGGGTKVEIK	0.08
XPA23 heavy chain S105I (Fab, V domains shown, Fab, periplasmic extract; also called C5A S105I) VH: EVQLLESGGGLVQPGGSLRLSCAASGFTFSKYFMFWVRQAPGKGLEWVSVISPSGGMTRYADSVKGRFTISRDNSKNTLYLQMNSLRAEDTAVYYCARVGYGGNIDYWGQGTLVTVSS VL: DIQMTQSPSSVSASVGDRLTIICRASQDINRWLAWYQQTPGNAPKLLIHSATSLQSGVPSRFSGSGSGTDFTLTINSLQPEDFATYYCQQADSFPLTFGGGTKVEIK	0.07
